B1: SNAP-FZD5 (Frizzled 5), wild type [human] / DEP_(414–507)-GFP, minimal DEP domain of DVL2 [human] (parent)
chain 1: GRGLSVHTDMASVTKAMAAPESGLEVRDRMWLKITIPNAFLGSDVVDWLYHHVEGFPERREARKYASGLLKAGLIRHTVNKITFSEQCYYVFGD
chain 2: ASKAPVCQEITVPMCRGIGYNLTHMPNQFNHDTQDEAGLEVHQFWPLVEIQCSPDLRFFLCSMYTPICLPDYHKPLPPCRSVCERAKAGCSPLMRQYGFAWPERMSCDRLPVLGRDAEVLCMDYNRSEATTAPPRPFPAKPTLPGPPGAPASGGECPAGGPFVCKCREPFVPILKESHPLYNKVRTGQVPNCAVPCYQPSFSADERTFATFWIGLWSVLCFISTSTTVATFLIDMERFRYPERPIIFLSACYLCVSLGFLVRLVVGHASVACSREHNHIHYETTGPALCTIVFLLVYFFGMASSIWWVILSLTWFLAAGMKWGNEAIAGYAQYFHLAAWLIPSVKSITALALSSVDGDPVAGICYVGNQNLNSLRGFVLGPLVLYLLVGTLFLLAGFVSLFRIRSVIKQGGTKTDKLEKLMIRIGIFTLLYTVPASIVVACYLYEQHYRESWEAALTCACPGHDTGQPRAKPEYWVLMLKYFMCLVVGITSGVWIWSGKTVESWRRFTSRCCCRPRRGHKSGGAMAAGDYPEASAALTGRTGPPGPAATYHKQVSLSHV

Variants of B1 are the subject of the test. The test is described as follows: FZD5-dependent PM recruitment of DEP-GFP (cell scoring). The conditions noted are these: with DEP_(414–507)-GFP, 100 cells scored in each case.

As to chain 2 R237A, the screen value was 12 % of cells (parent: 52, read off a plot) and 77 % of cells (parent: 88, read off a plot).

Take chain 2 P241A: the screen value (parent: 88, read off a plot) is 20 % of cells.

chain 2 W504A: the screen value reads like this: (parent: 52, read off a plot) 3 % of cells; (parent: 88, read off a plot) 24 % of cells.

Turning to chain 2 I403A, the screen value runs as follows: (parent: 52, read off a plot) 34 % of cells; (parent: 88, read off a plot) 70 % of cells.

For chain 2 R510A, the screen value by setting is: (parent: 52, read off a plot) 49 % of cells; (parent: 88, read off a plot) 85 % of cells.

With chain 2 I327A, the screen value (parent: 88, read off a plot) was 30 % of cells.

Turning to chain 2 R506A, the screen value is 49 % of cells (parent: 52, read off a plot) and 96 % of cells (parent: 88, read off a plot).

Turning to chain 2 G323T, the screen value is 56 % of cells (parent: 52, read off a plot) and 92 % of cells (parent: 88, read off a plot).

On to chain 2 R239A, for which the screen value is, setting by setting: (parent: 52, read off a plot) 11 % of cells; (parent: 88, read off a plot) 56 % of cells.

As for chain 2 S497A, the screen value was 60 % of cells (parent: 52, read off a plot) and 90 % of cells (parent: 88, read off a plot).

Turning to chain 2 S503A, the screen value was 50 % of cells (parent: 52, read off a plot) and 93 % of cells (parent: 88, read off a plot).

On to chain 2 Y240A, for which the screen value by setting is: (parent: 52, read off a plot) 8 % of cells; (parent: 88, read off a plot) 32 % of cells.

As for chain 2 K499A, the screen value was 5 % of cells (parent: 52, read off a plot) and 62 % of cells (parent: 88, read off a plot).

As to chain 2 T500A, the screen value (parent: 52, read off a plot) is 6 % of cells and the screen value (parent: 88, read off a plot) was 36 % of cells.

As for chain 2 K321A, the screen value by setting is: (parent: 52, read off a plot) 45 % of cells; (parent: 88, read off a plot) 92 % of cells.

Turning to chain 2 L417A, the screen value is, setting by setting: (parent: 52, read off a plot) 5 % of cells; (parent: 88, read off a plot) 37 % of cells.

For the variant chain 2 T230A, the screen value (parent: 52, read off a plot) was 1 % of cells and the screen value (parent: 88, read off a plot) was 12 % of cells.

Turning to chain 2 L420A, the screen value (parent: 88, read off a plot) is 41 % of cells.

Take chain 2 E502A: the screen value is 50 % of cells (parent: 52, read off a plot) and 92 % of cells (parent: 88, read off a plot).

chain 2 A326T: the screen value (parent: 88, read off a plot) was 41 % of cells.

In the case of chain 2 W494A, where the note is “parent: 88, read off a plot”, the screen value was 21 % of cells.

For chain 2 S509A, the screen value by setting is: (parent: 52, read off a plot) 52 % of cells; (parent: 88, read off a plot) 88 % of cells.

Regarding chain 2 V406A, the screen value by setting is: (parent: 52, read off a plot) 49 % of cells; (parent: 88, read off a plot) 86 % of cells.

(Values after article PMC5065529, “Wnt Signalosome Assembly by DEP Domain Swapping of Dishevelled” (Molecular Cell, 2016).)
